Data taken from paper PMC6953194.

Experiments:
Assay in all cases: SPR
[1] = biological target: VRC01 antibody derived from HEK cells (VRC01HEK) (human)
[2] = biological target: VRC01 co‐expressed with human β1,4‐galactosyltransferase in the ΔXT/FT plant line (VRC01Gal) (human)
[3] = biological target: VRC01 expressed in the ΔXT/FT N. benthamiana plant line (VRC01ΔXF) (human)
[4] = biological target: VRC01 expressed transiently in WT N. benthamiana (VRC01WT) (human)
[5] = biological target: plant‐produced VRC01 variant lacking Fc N‐glycans, N297S (VRC01aglyco) (human)
Chain of plant‐produced VRC01 variant lacking Fc N‐glycans, N297S (VRC01aglyco) (human) (light, as listed by the source, chain 2 of 2, other chains not shown): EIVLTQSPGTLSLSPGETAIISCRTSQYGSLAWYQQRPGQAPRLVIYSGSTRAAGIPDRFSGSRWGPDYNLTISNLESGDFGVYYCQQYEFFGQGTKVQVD

Chain of recombinant human FcγRI ectodomain (P12314 16-292): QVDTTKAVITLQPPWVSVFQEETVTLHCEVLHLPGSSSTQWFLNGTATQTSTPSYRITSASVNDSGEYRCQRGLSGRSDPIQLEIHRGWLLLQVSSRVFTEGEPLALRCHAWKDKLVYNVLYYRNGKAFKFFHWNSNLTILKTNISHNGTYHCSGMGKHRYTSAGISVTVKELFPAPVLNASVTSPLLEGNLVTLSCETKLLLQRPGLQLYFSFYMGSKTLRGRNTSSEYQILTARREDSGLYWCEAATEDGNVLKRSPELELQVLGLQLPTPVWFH
Chain of VRC01 expressed transiently in WT N. benthamiana (VRC01WT) (human) (light, as listed by the source, chain 2 of 2, other chains not shown): as the sequence (light, as listed by the source, chain 2 of 2, other chains not shown) above
Chain of VRC01 expressed in the ΔXT/FT N. benthamiana plant line (VRC01ΔXF) (human) (light, as listed by the source, chain 2 of 2, other chains not shown): as above
Chain of VRC01 antibody derived from HEK cells (VRC01HEK) (human) (light, as listed by the source, chain 2 of 2, other chains not shown): as above
Chain of VRC01 co‐expressed with human β1,4‐galactosyltransferase in the ΔXT/FT plant line (VRC01Gal) (human) (light, as listed by the source, chain 2 of 2, other chains not shown): as above

Row | Substance | Kd [1] | Kd [2] | Kd [3] | Kd [4] | half‐life of the antibody–FcγRI complex [4] | Kd [5]
1 | recombinant human FcγRI ectodomain (from UniProt P12314 16-292) (receptor) | 0.098 nM | 0.558 nM | 0.247 nM | 3 nM | 5 min | 71 nM
2 | recombinant human FcγRIIb ectodomain (from UniProt P31994 43-217) (receptor) | 3400 nM | 3700 nM | 2500 nM | > 7000 nM | – | –
